# US20230257477A1
# B1: 1H3H9 (antibody, V domains shown)
# VH: EVQLQQSGAELVKPGASVKLSCTASGFDIKDTYIHWVKQRPEQGLEWIGRIDPANGDTRYDPEFQGKASLTADTSSNTAYLQFSNLTSEDTAVYYCARRGGLSWGQGTTLTVSS
# VL: DIQMTQSPASLSASVGETVTITCRASGNIHNYLAWYQQKQGKSPQLLVYNAKTLADGVPSRFSGSGSGTQYSLKINSLQPEDFGSYYCQHFWSTPWTFGGGTKLEIK
# Molecular target: CD99 antigen (Origene, Sku #TP304058) (UniProt P14209)
# Assay: ELISA on coated CD99 antigen
# CD99 antigen (Origene, Sku #TP304058), sequence (P14209 23-185 limits assumed): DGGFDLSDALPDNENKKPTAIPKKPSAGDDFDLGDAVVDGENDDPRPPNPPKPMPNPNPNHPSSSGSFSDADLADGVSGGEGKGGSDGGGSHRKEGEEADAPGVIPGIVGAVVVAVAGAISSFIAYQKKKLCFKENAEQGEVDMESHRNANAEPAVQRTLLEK
binder,measurement,value
B1,ELISA absorbance,0.658
